T1: Recombinant CTLA-4 fusion protein comprising the extracellular domain of human CTLA-4 (R&D Systems Cat. … (human, UniProt P16410 36-161))
T1 construct: extracellular domain; Bought protein; also called recombinant human CTLA-4 fusion protein; soluble CTLA-4; not shown: Factor Xa cleavage site and fusion partner (called Ig)
T1 sequence (looked up): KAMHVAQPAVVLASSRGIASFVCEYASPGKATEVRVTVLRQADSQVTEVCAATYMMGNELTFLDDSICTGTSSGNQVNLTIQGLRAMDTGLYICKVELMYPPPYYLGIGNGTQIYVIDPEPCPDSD

B1: 1E2 (human anti-CTLA-4 monoclonal antibody) (antibody, V domains shown)
VH: QVQLVESGGGVVQPGRSLRLSCAASGFTFSSYGMHWVRQAPGKGLEWVAVIWYDGSNKYYADSVKGRFTISRDNSKNTLYLQMNSLRAEDTAVFYCARAPNYIGAFDVWGQGTMVTVSS
VL: DIQMTQSPSSLSASVGDRVTITCRASQGISSWLAWYQQKPEKAPKSLIYAASSLQSGVPSRFSGSGSGTDFTLTISSLQPEDFATYYCQQYNSYPPTFGQGTKVEIK

Columns and labels:
[1] = biological target: Macaque CTLA-4 expressed on transfected T-cells (macaque); test: flow cytometry (FACScan) on cell line expressing recombinant macaque CTLA-4
[2] = biological target: T1, Recombinant CTLA-4 fusion protein …; test: competitive ELISA with biotin labeled and unlabeled antibodies
Source text: Competitive ELISAs were done with biotin labeled and unlabeled antibodies to determine CTLA-4 epitope specificity. Four anti-CTLA-4 epitope binding groups were identified among the human antibodies, and an additional two epitopes were defined by the commercial murine monclonal antibodies BNI3 (Pharmingen, San Diego, Calif.), and 8H5 (Ancell Corp. Bayport, Minn.).

MFI [1]	binding result [2]	Molecule
4 MFI	–	isotype control (Table 5) (antibody)
–	binds	B1
